Data from US20250355001A1, “METHOD FOR DETECTING A TAU PROTEIN FRAGMENT IN A SAMPLE” (GTINVENT LIMITED, priority 2022, published 2025).

Test system: hT40, dGA, dGAE and truncated tau fragments
Assay: Binding ELISA / epitope mapping of anti-tau scAbs with truncated tau proteins and 13mer peptides
Set-up: species or system human
Settings: for Tau proteins/fragments with positive scAb reactivity: binding ELISA; for Shortest region bound on hT40: incl. 13mer peptides; for Epitope: residue numbers of SEQ ID NO: 1 (hT40), CDR Tables 1-11
Experimental: A series of binding ELISA was performed using various truncated versions of the tau protein and 13mer peptide libraries spanning the entire hT40 molecule for mapping the epitopes of anti-tau scAbs (Full list of protein antigens used is given in Table 14). In general, ELISA plates were coated with 1 μg/ml hT40 or dGA or dGAE or other truncated versions of the protein and in the case of biotinylated peptides, plates were coated with 5 μg/ml Streptavidin followed by 1 μg/ml biotinylated peptide. The plates were blocked with 2% MPBS and scAb samples added at desired starting concentrations and double diluted across the plate. Binding was detected using anti-Human C Kappa HRP conjugated secondary antibody and the resulting immunoreaction was developed and absorbance values measured as described above.
Selected E specific scAbs and their specific binding to dGAE is shown below (FIG. 8A-E).
Similarly, dGA binding ‘NS’, ‘S’ and ‘M’ group scAbs were subjected to further antigen binding ELISA using shorter tau proteins and biotinylated 13mer peptides as shown below (FIG. 10A-F) and (FIG. 11A-R).

[1] = Table 15, residue numbers of hT40

Epitope	Shortest region bound on hT40 (Table 16, NS, S and M clones)	Molecule	Tau proteins/fragments with positive scAb reactivity (Table 16, NS, S and M clones)	also measured
1-319	–	CA7: anti-tau clone, Table 10; VH SEQ ID NO: 503, VL 504 (antibody, V domains shown, CA7 VH Domain; CA7 VL Domain) VH: RVRLQGSGPSLVKPSQTLSLTCTVSGFSFDSYYVGWVRQAPGKALEWLGNIYSTGRAFYNPALKSRLSITRDTSKSQVSLSVSSVTIEDTALYYCVRGSYYHGGGNGMVDFFDYWSPGLLVTVSS VL: QVVRTQPSSVSGSLGQRVSITCSGSSSNVGYGNYVGWFQQVPGSAPKLLIYAATSRASGVPDRFSGSRSGNTATLTIDSLQAEDEADYYCSSYQRGNTGVFGSGTRLTVLG	–	Tau proteins/fragments with positive scAb reactivity (Table 17, 'C' group scAbs): hT40, 1-319; Shortest region bound on hT40 (Table 17, 'C' group scAbs): 1-319
412-441	–	412G11: C-terminal anti-tau clone, Table 5; SEQ ID NO: 434 (protein, 412G11 amino acid sequence) QVRLQESGPSLVKPSQTLSLTCTVSGFSLTSYALGWVRQAPGRAPEWIGNIWRGGRIEYNPALKSRLSITRDTSKSQVSLSLSSVTTEDTAVYYCSRSGGDWGPGLLVTVSSEGKSSGASGESKVDDQAVLTQPSSVSGSLGQRVSITCSGSSSNVGYGNYVGWYQQVPGSAPKLLIYGATSRASGVPDRFSGSRSENTATLTISSLQAEDEADYYCASYDRSESVVFGSGTRLTVLG	–	–
412-441	–	412B9: C-terminal anti-tau clone, Table 5; SEQ ID NO: 417 (protein, 412B9 amino acid sequence) QVQLQESGPSLVKPSQTLSLTCTVSGFSVISDSVAWVRQAPGKVPEWLGASGSSGNKYYNPALKSRLSITRDTSKSQVSLSLSSVTTEDTAVYYCARGIIAGVDVWGRGLLVSVSSEGKSSGASGESKVDDQAVLTQPSSVSGALGQRVSITCSGSSSNVGYGDYVGWYQQVPGSAPKLLIYGAASRASGVPDRFSGSRSGNTATLTISSLQAEDEADYYCASYDSSDGGVFGSGTRLTVLG	–	–
412-441	–	412E10: C-terminal anti-tau clone, Table 5; SEQ ID NO: 147 (protein, 412E10 amino acid sequence) QVQLQESGPSLVKPSQTLSLTCTVSGFSVISDSVAWVRQAPGKVPEWLGASGSSGNKYYNPALKSRLSITRDTSKSQVSLSLSSVTTEDTAVYYCARGIIAGVDVWGRGLLVTVSSEGKSSGASGESKVDDQAVLTQPSSVSGSLGQRVSITCSGSSSNVGYGNYVGWYQQVPGSAPKLLIYGTAIRASGVPDRFSGSRSGDTATLTITSLQAEDEADYYCASYQSNYAFFGSGTRLTVLG	–	Detection scAb (Epitope) (Table 28 (LoD table), residues of hT40): 412E10 (412-441)
337-355	337-355	ME12: sheep-derived anti-tau clone, CDRs in Table 1 (protein, VHCDR1 ME12, NS3D9; VHCDR1 S1D2, S1H6, S2C3; VHCDR1 MC5, MD12; VHCDR1 3aA6, VHCDR1 CE3; VHCDR2 ME12; VHCDR3 ME12; VLCDR1 S1D12, ME12; VLCDR2 ME12; VLCDR3 ME12) CDR 1: SNAVG CDR 2: GCSSDGKCYHNSALKS CDR 3: GFYSIYGYDYSGTIDY CDR 4: SGSSSNVGGGNSVG CDR 5: NTNSRPS CDR 6: VTGDSSTHDDL	hT40, 297-390 (dGA), 297-391 (dGAE), 341-353, 337-349, 339-351	–
412-441	–	412E6: C-terminal anti-tau clone, Table 5; sequence in b349 (protein) scAb: QVQLQESGPSLVKPSETLSLTCTVSGFSLTNYGVGWVRQAPGKALEWLGNIYSGGSTYYNPALKSRLSITRDTSKSQVSLSLNSVTLEDTAVYYCGRGGVGSVDVWGPGLLVTVSSEGKSSGASGESKVDDQAVLTQPPSVSGSPGQRVSITCSGGRNNIGRGTFVDWYQQLPGSGLKTVIYGTDRRPPGVPDRFSGSKTGNAATLTITSLQAEDEADYWCATYDYSNDMIILGSGTRLTVLG	–	–

Second part, the molecule before the results:

Molecule	Epitope	Shortest region bound on hT40 (Table 16, NS, S and M clones)	Tau proteins/fragments with positive scAb reactivity (Table 16, NS, S and M clones)	also measured
E2A6: dGAE (391E) specific clone, Table 9; SEQ ID NO: 252 (protein, E2A6 amino acid sequence) scFv: QVQLQESGPSLVKPSQTLSLTCTVSGFSLTDWGVAWVRQAPGKALEWLGTMRSGGTTDDNPALKSRLSITRDTSKSQVSLSLSSVTTEDMAMYYCARGYLSGVHYAWGRGLLVTVSSEGKSSGASGESKVDDRVVRTQPSSVSKSLGQSVSITCSGSSSNVGAGNYVGWFQQVPGSAPKLLIYGATNRASGVPARFSGSKSGVTATLTITSLQAEDEADYYCASIDTSRSHIFGSGTRLTVLG	–	–	–	Tau proteins/fragments with positive scAb reactivity [1]: 297-391 (dGAE)
E2B7: dGAE (391E) specific clone, Table 9; SEQ ID NO: 254 (protein, E2B7 amino acid sequence) scFv: QVQLQESGPSLVKPSQTLSLTCTVSGFSLTSWGVAWVRQAPGKALEWLGTMRSGGGTEYNPALKSRLSITRDTSKSQVSLSLSSVTTEDMAMYYCARGYLSGIHYAWGRGLLVSVSSEGKSSGASGESKVDDQAVLTQLSSVSGSLGQRVSITCSGSSSNVGDGDYVGWFQQLPGSAPKLLIYSARNRASGVPDRFSGSRSGNTATLTITSLQAEDEADYYCASIDTSRSHIFGSGTRLTVLG	–	–	–	cross-reactivity using hT40, dGA and dGAE antigens (ELISA, 'E' group scAbs): specific dGAE binding; Tau proteins/fragments with positive scAb reactivity [1]: 297-391 (dGAE)
S1F4: anti-tau clone, Table 2; SEQ ID NO: 414 (protein, S1F4 amino acid sequence) scFv: QVQLQESGPSLVKPSQTLSLTCTVSGFSLSSNSVGWVRQAPGKAPEWVAGIDTDGEEGYNPALNSRLSITRDTSKSQVSLSLSSVTSEDTAVYYCVRSYRADGLAYGYVQAIDYWGPGLLLTISSEGKSSGASGESKVDDQAVVTQPSSVSGSLGQRVSITCSGSFIGISSVGWFQQLPGSGLRTVIVASDGRPSGVPDRFSNSKSGNTATLTISSLQAEDEADYFCGSSDRTQYTGVFGSGTRLTVLG	367-379	367-379	hT40, 297-390 (dGA), 297-391 (dGAE), 369-390, 369-391	–
S1B1: anti-tau clone, Table 2; SEQ ID NO: 412 (protein, S1B1 amino acid sequence) scFv: QVQLQESGPSLVKPSQTLSLTCTVSGFSLSSNSVGWVRQAPGKAPEWVAGIDTDGEEGYNPALNSRLSITRDTSKSQVSLSLSSVTSEDTAVYYCVRSYRTDGLAYGYVQAIDYWGPGLLVTVSSEGKSSGASGESKVDDQAVLTQPSSVSGSLGQRVSITCSGSFIGISSVGWFQQLPGSGLRTVIVASDGRPSGVPDRFSNSKSGNTATLTISSLQAEDEADYFCGSSDRTQYTGVFGSGTRLTVLG	367-379	367-379	hT40, 297-390 (dGA), 297-391 (dGAE)	–
S1D9: anti-tau clone, Table 2; SEQ ID NO: 413 (protein, S1D9 amino acid sequence) scFv: QVQLQESGPSLVKPSQTLSLTCTVSGFSLTSNSVGWVRQAPGKAPEWVAGIDSDGEEGYNPALNSRLSITRDTSKNQVSLSLSRVTSEDTAVYYCGRTYRTDGYAYGYVQAIDYWGPGLLVTVSSEGKSSGASGESKVDDRVMLTQPPSVSGSPGQTVSITCSGSFIGISSVGWFQQLPGSGLRTVIFASDGRPSGVPDRFSNSKSGNTATLTISSLQAEDEADYFCGSSDRTQYTGVFGSGTRLTVLS	367-379	367-379	hT40, 297-390 (dGA), 297-391 (dGAE)	–
S2C6: anti-tau clone, Table 2; SEQ ID NO: 416 (protein, S2C6 amino acid sequence) scFv: QVQLQESGPSLVKPSQTLSLTCTVSGFSLISNSVGWVRQAPGKAPEWVAGIDTDGEEGYNPALKSQYAASDPDTSKSQVSLSLSSVTSEDTAVYYCGRTYRTDGFAYGYVQAIDYWGPGLLLTISSEGKSSGASGESKVDDQAVLTQPSSVSGSLGQRVSITCSGSFIGISSVGWFQQLPGSGLRTIIVASDGRPSGVPDRFSMSKSGNTATLTISSLQAEDEADYFCGSSDRTQYTGVFGSGTRLTVLG	367-379	367-379	hT40, 297-390 (dGA), 297-391 (dGAE), 369-390, 369-391	–
NS1G7: anti-tau clone, Table 10; SEQ ID NO: 374 (protein, NS1G7 amino acid sequence) scFv: QVQLQESGPSLVKPSQTLSLTCTVSGFSLTSYGVGWVRQAPGKTLEWISSISSGGTTFYNPALKSRLSITRDTSESQVSLSLSSVTTEDTAVYYCTRDVHIYYNDYGAAYGDRDYWGPGLLVTVSSEGKSSGASGESKVDDQAVVTQPPSVSGSPGQRVSITCSGSSSNIGGGNYVSWYQQLPGSGLRTLIYGTTSRASGVPDRFSGSGSGNTATLTISSLQAEDEADYYCASYDTNSGSVFGSGTRLTVLG	–	–	hT40, 297-390 (dGA), 297-391 (dGAE), 275-305, 337-368	–
